B1: TPR t1 (parent)
chain: GACCAAUCUGCCCUCAGAGCUCGAGAACAUCUUCGGAUGCAGAGGAGGCAGGCUUCGGUGGCGCGAUAGCGCCAACGUCCUCAACCUCCAAUGCAUCCCACCACAUGAUGAUGCCUGAAGAGCCUUGGUUUUUUG

Variants of: B1
Assay: polymerase ribozyme fitness, log enrichment relative to wild type (log ratio); higher = more active; in vitro selection for triplet polymerase activity
Method in brief: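 Input and output libraries were sequenced on Illumina after a single in vitro selection round, run in triplicate on PCR-built, transcribed mutant libraries of each subunit of a heterodimeric triplet polymerase ribozyme. Selection annealed libraries to a biotinylated primer, the partner subunit and triplets, incubated them frozen at −7 °C, then gel-excised extended constructs for streptavidin-bead capture and RT-PCR. Genotypes with ≥10 input reads and ≥1 read per output were kept. Fitness is the logarithm, taken in base 2, of genotype enrichment divided by wild-type enrichment, using inverse-variance-weighted replicate averages.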

Variant | polymerase ribozyme fitness (log ratio)
C13U A18U G35U A50G G71A C124G | -7.8
C13U G39C C72U U106G | -2.03
C13G U54C C89U A90U | -3.33
C13U C53U | 0.405
C13U C53G | -0.309
C13U C20A A27G G39A G60A C115A | -5.26
C13U G71U U116G | -1.86
C13U C114A | -1.07
C13U C114G | -1.34
C13U A105C | -1.68
U14A A29U | -3.64
C13G U59A | -1.41
C13U G19C C70U | -2.89
C13U G117C | -2.68
C13G G63C U87C | -3.11
C13U C86G | -0.454
C13U A50U G77C | -1
C13G G120A | -0.711
C13U C20U G61U C70U U92C | -4.03
C13U C73G G117A C124A | 0.844
C13G U33C C72U U81A C101G G110U U132A | -6.08

Variant | polymerase ribozyme fitness (log ratio)
C13U G42U G44C C88A | -1.42
C13U C34U G52C | -4.17
C13U G19C C40U C72U C98A G110U | -8.2
C13U G61U | 0.429
C13U G39C G58A A118U G120U | 0.174
C13U U130A U133A | -1.2
C13U G52C G60A A95G C98U U126G | -4.8
C13U C28A G47U | -4.54
C13U G63U C86A U112A | -1.22
C13U C34A U78G | -3.35
C13U C20A C72A | -2.75
C13G U96C | -2.28
C13U C64G U87G G120A C123G | -5.41
C13G G47U G77U | -3.79
U14A A16U A50U C72A U81C | -5.83
C13U G57A C79A | -1.12
C13U G77A | 0.00416
C13U A37U A66G | -0.629
C13U C73U G93C U106A A118G | -1.26
C13G U14G C15A G71A G122A | -4.63
C13U U55G A95U A111C A121U G127C | -0.336

Variant | polymerase ribozyme fitness (log ratio)
C13U G39A | -0.593
C13U C34U C62A G120C C124U | -6.16
C13G G69U G113A | -2.1
C13U G69A C82U | -2.59
C13U C62G | -0.959
C13U C62A | -0.888
C13U G25C U33G C70U U81A U109A | -6.3
C13G U133A | -2.17
C13U G39U G44U A68G | -5.44
C13U A18C A90C U96A | -2.27
C13G G47A C72U G110C | -7.11
C13U G51A C56G C72A U78G C89U | -0.967
C13U G39C C88U C102U C104A G113A | -2.3
C13U C20U A83G U96A | -3.34
C13U G63A | -0.373
C13U U33C A50G A84C C124G | -5.51
C13U G42U C56U C114G C123A | -1.36
C13U G42U G48A | -1.13
C13U C62A U78C A118U G122A | -2.29
C13U A41U G63U | -2.71
U14A A37U A84G | -2.93

Variant | polymerase ribozyme fitness (log ratio)
U14A A37U G52A U59C G71A | -3.95
C13U G45A G60C | -0.761
C13G U32C | -2.08
C13U G45U G52A A83C A103U C114U G127A | -5.65
U14A A66U C98U | -4.97
C13U G110C | -3.69
C13U G47U G117U | -2.08
C13G U96C C101A | -3.35
C13U G36A C64U | -0.484
C13U C20G C62G C104A G110U A121U | -6.79
C13U G36C A74C | 0.0868
C13G G93A G113C A118U | -5.1
C13G G117C | -4.58
C13G U125A | -1.62
U14A A46U G61A A84U C85U | -4.32
C13U C94U A95C | -1.52
C13U C85U C86G U106A | -0.767
C13U C56U C124G U131C | 2.69
C13U C56A C114U | -1.73
C13U C20U G51A A66G C72U U109A | -6.73
C13U A18C C88G U92A | -2.48

Reference: the RNAGym collection of RNA variant scans (doi:10.1073/pnas.2313332121)
